Target: FUBP1-strep (UniProt Q96AE4 1-644)
Assay: EMSA; EMSA: 10 mM Tris pH 7.5, 140 mM KCl, 10 mM NaCl, 1 mM MgCl2, 10% glycerol, 1 mM DTT, RNase inhibitor 1 U/ul, room temperature 30 min; probe 20 nM (Fig. 3A) or 10 nM (Fig. 5E, S5D). Pull-down: HepG2 lysate (50 mM Tris pH 7.5, 100 mM NaCl, 1% NP-40, 0.5% deoxycholate) + tRNA 50 ug/ml, RT 30 min then 4 C 90 min; washes 10 mM Tris pH 7.5, 150 mM KCl, 1.5 mM MgCl2, 0.1% NP-40, 0.5 mM DTT
Details: protein: recombinant; tags: C-terminal Strep-tag; label: 5' FAM

Sequence of FUBP1-strep (Q96AE4 whole entry): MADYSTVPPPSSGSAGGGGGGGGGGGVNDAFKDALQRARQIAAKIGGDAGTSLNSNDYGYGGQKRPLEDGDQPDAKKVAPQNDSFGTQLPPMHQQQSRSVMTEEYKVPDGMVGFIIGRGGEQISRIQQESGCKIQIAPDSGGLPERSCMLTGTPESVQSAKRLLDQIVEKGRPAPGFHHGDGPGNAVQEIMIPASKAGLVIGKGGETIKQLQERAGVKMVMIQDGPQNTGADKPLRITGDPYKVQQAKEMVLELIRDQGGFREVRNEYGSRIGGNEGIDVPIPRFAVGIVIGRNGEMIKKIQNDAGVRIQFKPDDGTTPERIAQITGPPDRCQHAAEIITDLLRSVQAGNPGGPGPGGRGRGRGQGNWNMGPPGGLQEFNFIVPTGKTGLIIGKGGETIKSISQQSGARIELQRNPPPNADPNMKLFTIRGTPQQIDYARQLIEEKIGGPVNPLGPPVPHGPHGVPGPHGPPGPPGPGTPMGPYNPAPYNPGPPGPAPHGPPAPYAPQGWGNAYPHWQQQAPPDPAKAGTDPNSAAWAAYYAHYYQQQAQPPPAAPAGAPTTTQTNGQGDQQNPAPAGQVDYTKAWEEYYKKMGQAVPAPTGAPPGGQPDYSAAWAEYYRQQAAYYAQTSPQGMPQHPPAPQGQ

| Binder | binding result |
| --- | --- |
| ACUGAACGCCUUUAAGUCAGAAUCCCACCC (ssRNA, 2'-O-methyl at G4, G16, C18, A19, C24, C25, A27) [SEC14L1 Nm] | binds |
| CGCUGAGUGCGCUGCACUGACCUUCUUCCA (ssRNA, 2'-O-methyl, multiple sites) [SNX5 Nm] | binds |

Reference: paper PMC12533644, “Nuclear 2′-O-methylation regulates RNA splicing through its binding protein FUBP1”
